± gives the uncertainty stated by the source.
B1: Mineralocorticoid receptor, residues 600 to 675; numbered along this chain, P08235 (parent)
chain: SKICLVCGDEASGCHYGVVTCGSCKVFFKRAVEGQHNYLCAGRNDCIIDKIRRKNCPACRLQKCLQAGMNLGARKS

Variants of: B1
Experiment: abundance fitness (aPCA) (normalised: wild type 0, dead -1); higher = more abundant; growth selection in yeast, the domain comes from the species named
Conditions: Homo sapiens

| Variant | abundance fitness |
| --- | --- |
| SKICLVCGDEASGCHYGVVTCGSCKVFFKRAVEGQHNYLCAGRNDCIIDKIRRKNCPACRLQFCLQAGMNLGARKS | -0.192 ± 0.052 |
| SKICLVCGDEASGCHYGVVTCGSCKVFFKRAVEGQHNYLCAGRNDCIIDKIRRKNCPACRLQDCLQAGMNLGARKS | -0.318 ± 0.063 |
| SKICLVCGDEASGCHYGVVTCGSCKVFFKRAVEGQHNYLCAGRNDCIIDKIRRKNCPACRLQECLQAGMNLGARKS | -0.16 ± 0.064 |
| SKICLVCGDEASGCHYGVVTCGSCKVFFKRAVEGQHNYLCAGRNDCIIDKIRRKNCPACRLQKWLQAGMNLGARKS | -0.523 ± 0.052 |
| SKICLVCGDEASGCHYGVVTCGSCKVFFKRAVEGQHNYLCAGRNDCIIDKIRRKNCPACRLQKYLQAGMNLGARKS | -0.452 ± 0.06 |
| SKICLVCGDEASGCHYGVVTCGSCKVFFKRAVEGQHNYLCAGRNDCIIDKIRRKNCPACRLQKFLQAGMNLGARKS | -0.466 ± 0.071 |
| SKICLVCGDEASGCHYGVVTCGSCKVFFKRAVEGQHNYLCAGRNDCIIDKIRRKNCPACRLQKALQAGMNLGARKS | -0.028 ± 0.034 |
| SKICLVCGDEASGCHYGVVTCGSCKVFFKRAVEGQHNYLCAGRNDCIIDKIRRKNCPACRLQKKLQAGMNLGARKS | -0.885 ± 0.14 |
| SKICLVCGDEASGCHYGVVTCGSCKVFFKRAVEGQHNYLCAGRNDCIIDKIRRKNCPACRLQKNLQAGMNLGARKS | -0.886 ± 0.2 |
| SKICLVCGDEASGCHYGVVTCGSCKVFFKRAVEGQHNYLCAGRNDCIIDKIRRKNCPACRLQKSLQAGMNLGARKS | -0.113 ± 0.031 |
| SKICLVCGDEASGCHYGVVTCGSCKVFFKRAVEGQHNYLCAGRNDCIIDKIRRKNCPACRLQKVLQAGMNLGARKS | -0.587 ± 0.057 |
| SKICLVCGDEASGCHYGVVTCGSCKVFFKRAVEGQHNYLCAGRNDCIIDKIRRKNCPACRLQKHLQAGMNLGARKS | -0.821 ± 0.14 |
| SKICLVCGDEASGCHYGVVTCGSCKVFFKRAVEGQHNYLCAGRNDCIIDKIRRKNCPACRLQKTLQAGMNLGARKS | -0.35 ± 0.046 |
| SKICLVCGDEASGCHYGVVTCGSCKVFFKRAVEGQHNYLCAGRNDCIIDKIRRKNCPACRLQKILQAGMNLGARKS | -0.415 ± 0.065 |
| SKICLVCGDEASGCHYGVVTCGSCKVFFKRAVEGQHNYLCAGRNDCIIDKIRRKNCPACRLQKELQAGMNLGARKS | -0.851 ± 0.11 |
| SKICLVCGDEASGCHYGVVTCGSCKVFFKRAVEGQHNYLCAGRNDCIIDKIRRKNCPACRLQKQLQAGMNLGARKS | -0.315 ± 0.061 |
| SKICLVCGDEASGCHYGVVTCGSCKVFFKRAVEGQHNYLCAGRNDCIIDKIRRKNCPACRLQKLLQAGMNLGARKS | -0.351 ± 0.039 |
| SKICLVCGDEASGCHYGVVTCGSCKVFFKRAVEGQHNYLCAGRNDCIIDKIRRKNCPACRLQKMLQAGMNLGARKS | -0.017 ± 0.041 |

| Variant | abundance fitness |
| --- | --- |
| SKICLVCGDEASGCHYGVVTCGSCKVFFKRAVEGQHNYLCAGRNDCIIDKIRRKNCPACRLQKDLQAGMNLGARKS | -0.716 ± 0.097 |
| SKICLVCGDEASGCHYGVVTCGSCKVFFKRAVEGQHNYLCAGRNDCIIDKIRRKNCPACRLQKGLQAGMNLGARKS | -0.02 ± 0.029 |
| SKICLVCGDEASGCHYGVVTCGSCKVFFKRAVEGQHNYLCAGRNDCIIDKIRRKNCPACRLQKPLQAGMNLGARKS | -0.869 ± 0.11 |
| SKICLVCGDEASGCHYGVVTCGSCKVFFKRAVEGQHNYLCAGRNDCIIDKIRRKNCPACRLQKCQQAGMNLGARKS | 0.018 ± 0.054 |
| SKICLVCGDEASGCHYGVVTCGSCKVFFKRAVEGQHNYLCAGRNDCIIDKIRRKNCPACRLQKCMQAGMNLGARKS | -0.052 ± 0.05 |
| SKICLVCGDEASGCHYGVVTCGSCKVFFKRAVEGQHNYLCAGRNDCIIDKIRRKNCPACRLQKCVQAGMNLGARKS | -0.087 ± 0.042 |
| SKICLVCGDEASGCHYGVVTCGSCKVFFKRAVEGQHNYLCAGRNDCIIDKIRRKNCPACRLQKCDQAGMNLGARKS | -0.051 ± 0.15 |
| SKICLVCGDEASGCHYGVVTCGSCKVFFKRAVEGQHNYLCAGRNDCIIDKIRRKNCPACRLQKCHQAGMNLGARKS | 0.032 ± 0.071 |
| SKICLVCGDEASGCHYGVVTCGSCKVFFKRAVEGQHNYLCAGRNDCIIDKIRRKNCPACRLQKCNQAGMNLGARKS | -0.058 ± 0.082 |
| SKICLVCGDEASGCHYGVVTCGSCKVFFKRAVEGQHNYLCAGRNDCIIDKIRRKNCPACRLQKCRQAGMNLGARKS | -0.055 ± 0.034 |
| SKICLVCGDEASGCHYGVVTCGSCKVFFKRAVEGQHNYLCAGRNDCIIDKIRRKNCPACRLQKCAQAGMNLGARKS | -0.05 ± 0.045 |
| SKICLVCGDEASGCHYGVVTCGSCKVFFKRAVEGQHNYLCAGRNDCIIDKIRRKNCPACRLQKCKQAGMNLGARKS | -0.107 ± 0.061 |
| SKICLVCGDEASGCHYGVVTCGSCKVFFKRAVEGQHNYLCAGRNDCIIDKIRRKNCPACRLQKCWQAGMNLGARKS | -0.035 ± 0.051 |
| SKICLVCGDEASGCHYGVVTCGSCKVFFKRAVEGQHNYLCAGRNDCIIDKIRRKNCPACRLQKCYQAGMNLGARKS | -0.001 ± 0.076 |
| SKICLVCGDEASGCHYGVVTCGSCKVFFKRAVEGQHNYLCAGRNDCIIDKIRRKNCPACRLQKCEQAGMNLGARKS | 0.031 ± 0.049 |
| SKICLVCGDEASGCHYGVVTCGSCKVFFKRAVEGQHNYLCAGRNDCIIDKIRRKNCPACRLQKCFQAGMNLGARKS | -0.01 ± 0.1 |
| SKICLVCGDEASGCHYGVVTCGSCKVFFKRAVEGQHNYLCAGRNDCIIDKIRRKNCPACRLQKCGQAGMNLGARKS | -0.051 ± 0.038 |
| SKICLVCGDEASGCHYGVVTCGSCKVFFKRAVEGQHNYLCAGRNDCIIDKIRRKNCPACRLQKCTQAGMNLGARKS | -0.037 ± 0.06 |

From the Human Domainome abundance scans (Beltran et al. 2025)
